Laboratory results taken from patent US7960140B2, “Avidin mutants” (Orion Diagnostica Oy, priority 2003, dated 2011).

Legend:
[1] = Free biotin-binding sites by quenching of intrinsic fluorescence on biotin titration
Experimental: The number of free binding sites was determined based on the quenching of the intrinsic fluorescence of avidin due to binding of biotin (Laitinen et al., (2003) J. Biol. Chem. 278, 4010-4014). The protein sample under study diluted to 2 ml volume in 50 mM NaPO4 pH 7.0+650 mM NaCl was titrated with 1 μl additions of 70 μM biotin solution in the same buffer. The protein concentration in this assay was 500±15 nM, and the concentration was determined by comparing the emission intensity averaged over 340-350 nm (excitation at 280 nm) to avidin standard sample. The protein sample was continuously mixed by magnetic stirrer.
Intensity from each biotin concentration was averaged over eight second measurement. The end-point of the quenching was determined by fitting a line to obtained data and determining the total quenching by averaging the last three measured intensities (FIG. 12, Table 6).

[2] = Radiobiotin dissociation assay; assay type: binding; settings: various temperatures
Experimental: FIG. 11. Radiobiotin dissociation assay for scAvd. Temperature-dependence of biotin dissociation rates measured by the [3H]biotin dissociation assay. Dissociation rate constant of radiobiotin was determined at various temperatures. The dissociation rate constants determined previously for avidin and streptavidin are also shown. The determined kdiss-values are connected by lines.
Radiobiotin assay was performed for scAvd in various temperatures.

[3] = Microplate temperature stability assay; assay type: physicochemical
Experimental: FIG. 13. Temperature sensitivity determined by microplate assay. The avidin, dcAvd and scAvd sample is treated with the indicated temperature for certain time and the ability to bind biotinylated alkaline phosphatase was determined by coating the microplate with the sample.
The stability of the protein was studied by microplate assay as described in the article by Nordlund et al., (2003) J Biol Chem 278, 2479-83. In this assay, 50 mM Na—PO4 buffer containing 100 mM NaCl was used and the protein was heated to 80° C. or 90° C. for certain time. After that, the capacity to bind fluorescent biotin was measured as described in the article by Nordlund et al., (2003) J Biol Chem 278, 2479-83.

[4] = Dissociation assay with fluorescent biotin conjugate (ArcDia BF560); assay type: binding
Experimental: The biotin-binding properties of produced mutagenised dcAvds were analysed by method based on the quenching of biotin-coupled fluorescent probe ArcDia BF560 (ArcDia Ltd., Turku, Finland) due to binding to avidin (FIG. 4). PerkinElmer LS55 luminometer was used for measurements. […] The spectra of 50 nM biotin-Bf560 solution in 50 mM Na-phosphate containing 650 mM NaCl was measured (red). Chicken avidin (Belovo S. A., Bastogne, Belgium) was added to final subunit concentration of 83 nM and green spectra was obtained.
Briefly, 50 nM free biotin-Bf560 solution in 50 mM Na-phosphate containing 650 mM NaCl was measured using excitation at 560 nm (2.5 nm slit) and emission was collected at 578 nm (5 nm slit). Continuous stirring (setting low) was used throughout the analysis. After 100 sec measurement, the protein under study was added to final biotin-binding subunit concentration 50 nM and the measurement was continued for 500 sec. […]
A one-phase dissociation model was used to analyse the data, as described elsewhere (Hytönen et al., (2004) Biochem J, in press). The dissociation rate constant (kdiss) was determined by fitting the equation −kdisst=ln(B/Bo) to the data. Bo is the measured maximum binding (100%) determined as the difference between the fluorescence of the free dye and the fluorescence of the protein-dye complex, and B is the amount of complex measured as a function of time. The first 500 seconds were omitted from the data to abolish the effect of the fast initial phase characteristic of avidin-BF560-biotin interaction (FIG. 9). The fraction of fluorescent biotin released after one-hour was determined, as well as the times of half-maximal (t½) and quarter-maximal (t¼) release. For dual chain avidins with modified binding sites, it was hypothesized that 50% of the binding sites would behave like those of wt avidin (cpAvd5S4 binding site of dcAvd was not modified). The dissociation data measured for wt avidin divided by two was subtracted from the data measured for the modified dual chain avidins and the dissociation curve was fitted to the difference as above.

B1: scAvd: single-chain avidin, two dcAvd fused tail-to-head via 12 amino-acid linker GGSGSGSGSGSG (SEQ ID NO:24) (protein, listed as Gallus gallus)
chain: MVHATSPLLLLLLLSLALVAPGLSARKRTQPTFGFTVNWKFSESTTVFTGQCFIDRNGKEVLKTMWLLRSSVNDIGDDWKATRVGINIFTRLRTQKEGGSGGSARKCSLTGKWTNDLGSNMTIGAVNSRGEFTGTYITAVTATSNEIKESPLHGTQNTINKSGGSTTVFTGQCFIDRNGKEVLKTMWLLRSSVNDIGDDWKATRVGINIFTRLRTQKEGGSGGSARKCSLTGKWTNDLGSNMTIGAVNSRGEFTGTYITAVTATSNEIKESPLHGTQNTINKRTQPTFGFTVNWKFSEGGSGSGSGSGSGRTQPTFGFTVNWKFSESTTVFTGQCFIDRNGKEVLKTMWLLRSSVNDIGDDWKATRVGINIFTRLRTQKEGGSGGSARKCSLTGKWTNDLGSNMTIGAVNSRGEFTGTYITAVTATSNEIKESPLHGTQNTINKSGGSTTVFTGQCFIDRNGKEVLKTMWLLRSSVNDIGDDWKATRVGINIFTRLRTQKEGGSGGSARKCSLTGKWTNDLGSNMTIGAVNSRGEFTGTYITAVTATSNEIKESPLHGTQNTINKRTQPTFGFTVNWKFSE
**Q.** Which results are given for B1?
**A.** quenching measured for whole emission spectrum (290-500 nm) due to biotin binding ([1]; 290-500 nm): 39.7%; Fluorescence quenching (350 nm) ([1]; intrinsic fluorescence, emission 350 nm, due to binding of biotin): 44.4%; Number of free biotin-binding sites per quaternary unit ([1]; protein 500±15 nM, titrated with biotin): 3.2; dissociation of [3H]biotin [2]: extremely slow dissociation of [3H]biotin; activity after 32 min treatment ([3]; 80° C., 32 min): 26%; heat inactivation ([3]; 90° C.): fast denaturation; heat inactivation ([3]; 100° C.): fast inactivation; Dissociation of fluorescent biotin Release 1 h ([4]; 25° C.): 8.8%; Dissociation of fluorescent biotin kdiss ([4]; 25° C.): 1.3e-05 s⁻¹; Dissociation of fluorescent biotin Release 1 h ([4]; 50° C.): 62.3%; Dissociation of fluorescent biotin kdiss ([4]; 50° C.): 0.00025 s⁻¹
